Results from article PMC7919418 (Genes & Development, 2021).

Experiment: SEC-MALS molecular weight / oligomeric state
Assay type: physicochemical

## dual-TQT/V Panx peptides: Panx peptide residues 455–480 with both Ctp binding sites (TLYKNAATQTERRTATRDAGTQVRLE)
  oligomeric state / stoichiometry: two Ctp homodimers with two dual-TQT/V Panx peptides
